Laboratory results from the supplement of paper PMC9170038.

System: MS2 coat protein
Assay: apparent KD of MS2 coat protein; designed switch direction (-1 OFF switch, 1 ON switch): 1; higher = weaker reporter binding
Summary of the method: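 The reported apparent KD is a per-design median over clusters, from curve fits of normalised cluster fluorescence. Protein titrations used SNAP-549-labelled MS2 coat protein, doubled from 0.7 or 1.5 nM to 3 µM, in Tris-HCl pH 7.5 buffer with KCl, MgCl2, BSA, DTT, tRNA and Tween-20, with no input, 200 uM small-molecule ligand, or an oligonucleotide input. The RNA switches were transcribed on Illumina chips by stalled E. coli RNA polymerase.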

[1] = input ligand: microRNA oligo, concentration not stated
[2] = Eterna round: R95, input ligand: FMN 200 uM
[3] = Eterna round: R95, input ligand: microRNA oligo, concentration not stated
[4] = Eterna round: R95, input ligand: none

| Sequence | apparent KD of MS2 coat protein (input ligand: FMN 200 uM) [nM] | apparent KD of MS2 coat protein [1] [nM] | apparent KD of MS2 coat protein (input ligand: none) [nM] | apparent KD of MS2 coat protein [2] [nM] | apparent KD of MS2 coat protein [3] [nM] | apparent KD of MS2 coat protein [4] [nM] |
| --- | --- | --- | --- | --- | --- | --- |
| AAAGAAAACAUAGGAUAUGUAACAUGAGGAUCACCCAUGUAUACCUCGUAAGAGAUGAUGGAUGGACAGAAGGAUGGUCUCAGG [Default title] (Eterna round: R96, puzzle: Same State NG 2) | 134 | 73.7 | 80.6 |  |  |  |
| AAAGAACAUGAGGAUCACCCAUGUGGAAGAGGCACAGGAUAUCACCUCGCAAGUACGAGGUGAGAAGGGUGAUGAU [Araa] (puzzle: Same State 1) |  |  |  | 183 | 154 | 426 |
| AAAGCACAUGAGGAUCACCCAUGUGGAAAUAACACAGGAUAUCCUGCCGAAACUAAGGUGGGAGAAGGGUGACCUA [Iszagece] (puzzle: Same State 1) |  |  |  | 147 | 54 | 55.9 |
| AAAGGAUGAUGUUACAUGAGGAUCACCCAUGUAGUGAUAACUAAGGAUAUCUGUUAAAUUAAUUAAGAGAAGGUAGGAUCAUUA [AK SSNG3-V2-8.1] (Eterna round: R96, puzzle: Same State NG 3) | 43.5 | 45.8 | 53.2 |  |  |  |
| AAAGGAUGAUGUUACAUGAGGAUCACCCAUGUAGUGAUAACUAAGGAUAUGUGUUAAACAAGUUAAUAGAAGGUAGGAUCAUUA [AK SSNG3-V2-7] (Eterna round: R96, puzzle: Same State NG 3) | 73.9 | 52 | 69.4 |  |  |  |
| AAAGGCAUGGCACAGGAUAUGCAAUAAAAGACAUGAGGAUCACCCAUGUACCCGAGAAACGGGCAGCAGAAGGGUGUAAAAGAAA [Orrere] (puzzle: Same State 2) |  |  |  | 134 | 115 | 447 |
| AAAUAAACACAUGAGGAUCACCCAUGUCCCAAAAUACAAACGCAGGAUAUGGGCACGAACCGUGUCCAGAAGGGCGCAAAAUAC [Esonbia] (Eterna round: R96, puzzle: Same State NG 3) | 24.5 | 111 | 116 |  |  |  |
| AACAAACGCGGAGGAUAUGGGCGAGGCGCGGAAGUCCACGCCAAAACAUGAGGAUCACCCAUGUCCCAGAAGGCCGCACAAAAU [Gererier] (Eterna round: R96, puzzle: Same State NG 2) | 16.3 | 40.8 | 49.1 |  |  |  |
| AACAAUCUAUCUCAGGAUAUCAUGUCAAAGACAUGAGGAUCACCCAUGUACCAGGAAACUGGUUAUGAGAAGGGAGAUAGAUUGU [Mat - Same State 2 - Mod - D23] (puzzle: Same State 2) |  |  |  | 157 | 68.2 | 268 |
| AACAAUCUAUCUGAGGAUAUCAUGAAAUAAACAUGAGGAUCACCCAUGUGCAGGAAAACUGCAUAUGAGAAGGCAGAUAUAUUGA [salish99_ss2_r3_055] (puzzle: Same State 2) |  |  |  | 104 | 1160 | 4700 |
| AACAAUCUAUCUGAGGAUAUCAUGAAAUAAACAUGAGGAUCACCCAUGUGCAGGAAAACUGCAUAUGAGAAGGCAGUUAGAUUGA [salish99_ss2_r3_053] (puzzle: Same State 2) |  |  |  | 45.5 | 612 | 568 |
| AACAAUCUAUCUGAGGAUAUUAUGAAAUAAACAUGAGGAUCACCCAUGUGCAGGAAAACUGCAUAUGAGAAGGCAGAUAGAUUGA [salish99_ss2_r3_027] (Eterna round: R96, puzzle: Same State 2) |  | 274 |  |  |  |  |
| AACAAUCUAUCUGAGGAUAUUAUGAAAUAAACAUGAGGAUCACCCAUGUGCAGGAAAACUGCAUAUGAGAAGGCAGAUAGAUUGA [salish99_ss2_r3_027] (puzzle: Same State 2) |  |  |  | 18.8 | 336 | 636 |
| AACAGUCGGCGAGGAUAUGGACGUACAGGUUUGCCUGUGCGGCUCACAUGAGGAUCACCCAUGUUCUAGAAGGCGCCACUGUGA [Racearza] (Eterna round: R96, puzzle: Same State NG 2) | 15.6 | 60 | 73.9 |  |  |  |
| AACAUGUGGUGUCACAUGAGGAUCACCCAUGUGGUAAAACCUGAGGAUAUAAAGAAAAAAAUCAAUUAGAAGGUAGGAUCACAA [AK SSNG3-V2-18.1] (Eterna round: R96, puzzle: Same State NG 3) | 16.4 | 26.2 | 32.5 |  |  |  |
| AACAUUCUAUCUCAGGAUAUCAUGUCAAAGACAUGAGGAUCACCCAUGUACCAGGAAACUGGUUAUGAGAAGGGAGAUAGAAUGA [Mat - Same State 2 - Mod - D45] (Eterna round: R96, puzzle: Same State 2) | 267 | 517 | 1080 |  |  |  |
| AACAUUCUAUCUCAGGAUAUCAUGUCAAAGACAUGAGGAUCACCCAUGUACCAGGAAACUGGUUAUGAGAAGGGAGAUAGAAUGA [Mat - Same State 2 - Mod - D45] (puzzle: Same State 2) |  |  |  | 114 | 89.4 | 162 |
| AACCAACAAAUAAAACAAGCGUGCUCGUCACAUGAGGAUCACCCAUGUUUAAGCGCUAUUCCUACUUCCUCAGCGCC [Ininceisa] (puzzle: Sensor for hsa-mir-208a) |  |  |  | 104 |  | 97.7 |
| AACCCAAUGGAAGGAUAUGGCACCUUAUUGGUGCCAGAAGGUCCUAACAUGAGGAUCACCCAUGUGGGCCGGUCUUAAGACCGG [Fiskers NG1ss - 8] (Eterna round: R96, puzzle: Same State NG 1) | 142 | 382 | 456 |  |  |  |
| AACCUACAUGAGGAUCACCCAUGUGUCUAAGGCACAGGAUAUCGACAGGCAAGACACCUGCGAGAAGGGUGACCUA [Diatater] (puzzle: Same State 1) |  |  |  | 56.2 | 24 | 48.7 |
| AAGAAACAUGAGGAUCACCCAUGUGUAAAUAUGGGAGGAUAUACAAGGACGUAAGUCAAGGUAGAAGGCCUAAGAA [Mat - Same State 1 - Meechl mod - D137] (Eterna round: R96, puzzle: Same State 1) | 31 | 155 | 234 |  |  |  |
| AAGAGAGAAAUACAGGAUAUGAGGAGAGGAACAUGAGGAUCACCCAUGUGAGAGAAAGGGAAGAAUCAGAAGGGUAGAGAAGAGA [JR_SS2_Sub002] (puzzle: Same State 2) |  |  |  | 31.8 | 47 | 73.8 |
| AAGGAAUGAGCGUAGGAUAUAGGAGAAGUGACAUGAGGAUCACCCAUGUAAAAGGAGGGAUGAGACUAGAAGGACGAGGUAGGAG [JR_SS2_Sub058] (puzzle: Same State 2) |  |  |  | 57.9 | 53.3 | 81.8 |
| AAGGGCGGAAACGACAUGAGGAUCACCCAUGUUGCCGAAAGGCAGGAUAUCCGGCGAAAGCAGAAGGAGAAGGGUCAAGAACCA [AK SSNG3-V2-43] (Eterna round: R96, puzzle: Same State NG 3) | 38.9 | 24.7 | 43.8 |  |  |  |
